Read-outs that look alike come from different tables or passages of the source.
B1: Sema3F C-terminal peptide, C-1 proline variant (S3F-PR) (peptide)
peptide: WDQKKPRNPR
B2: Sema3F C-terminal peptide, wild type (S3F-RR) (peptide)
peptide: WDQKKPRNRR
B3: Sema3F C-terminal peptide, C-1 aspartate variant (S3F-DR) (peptide)
peptide: WDQKKPRNDR

Assays:
[1] = target: Neuropilin-1 domains b1b2 (Nrp1-b1b2); assay: in vitro plate binding assay
[2] = target: Neuropilin-1 domains b1b2 (Nrp1-b1b2); assay: in vitro plate binding assay; remark: listed apart in the source
[3] = target: Neuropilin-1 domains b1b2 (Nrp1-b1b2); assay: ITC

Row | Molecule | IC50 [1] | IC50 [2] | Ka [3] | Kd [3] | dH [3] | stoichiometry N [3]
1 | Sema3E.3 peptide (Sema3E, furin cleavage site 3) | 0.76 µM | – | – | – | – | –
2 | Sema3A.2 peptide (Sema3A, furin cleavage site 2) | 34 µM | – | – | – | – | –
3 | B1 | – | 4.7 µM | 101000 M⁻¹ | 10 µM | -17 kcal/mol | 1
4 | B2 | – | 11 µM | – | 33 µM | -18.5 kcal/mol | 1
5 | B3 | – | 28 µM | – | – | – | –

From article PMC4038064
